For the data set, the system named is T1, cleavable peptide CP(AQ), Lys(AQ)SerGlyProLeuGlyValArgGlySerSerCys.
T1 sequence: KSGPLGVRGSSC

As to “purified, recombinant MMP2 (BioLegend, #554304)”, the “proteolytic cleavage followed by thin layer chromatography” value was “after the incubation of CP(AQ) with MMP2, the compound was able to shift organic solution, with a transformed behavior from hydrophilic to hydrophobic”.

Values taken from US20190256597.
